Molecular target: T1, Movement Protein of ToBRFV (Tomato Brown Rugose Fruit Virus …, UniProt A0A0S2SZW1 1-266)
T1 sequence: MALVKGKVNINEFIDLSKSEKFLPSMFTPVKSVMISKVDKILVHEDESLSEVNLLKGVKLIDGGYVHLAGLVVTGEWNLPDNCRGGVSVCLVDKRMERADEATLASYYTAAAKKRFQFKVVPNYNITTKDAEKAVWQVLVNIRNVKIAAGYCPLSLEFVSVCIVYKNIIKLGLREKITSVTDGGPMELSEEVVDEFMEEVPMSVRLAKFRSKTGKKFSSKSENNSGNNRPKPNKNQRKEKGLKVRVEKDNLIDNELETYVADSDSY
Test: cell-based or functional assay

| Binder | HR to MP Rugose [HR scale 0-4] |
| --- | --- |
| TM-2-2 variant pJL 480Q (848 R, 857 Q) (receptor) MAEILLTSVINKSVEIAGNLLIQEGKRLYWLKEDIDWLQREMRHIRSYVDNAKAKEAGGDSRVKNLLKDIQELAGDVEDLLDDFLPKIQQSNKFNYCLKRSSFADEFAMEIEKIKRRVVDIDRIRKTYNIIDTDNNNDDCVLLDRRRLFLHADETEIIGLDDDFNMLQAKLLNQDLHYGVVSIVGMPGLGKTTLAKKLYRLIRDQFECSGLVYVSQQPRASEILLDIAKQIGLTEQKMKENLEDNLRSLLKIKRYVILLDDIWDVEIWDDLKLVLPECDSKVGSRMIITSRNSNVGRYIGGESSLHALQPLESEKSFELFTKKIFNFDDNNSWANASPDLVNIGRNIVGRCGGIPLAIVVTAGMLRARERTEHAWNRVLESMGHKVQDGCAKVLALSYNDLPIASRPCFLYFGLYPEDHEIRAFDLINMWIAEKFIVVNSGNRREAEDLAEDVLNDLVSRNLIQLAKRTYNGRISSCRIHDLLHSLCVDLAKESNFFHTAHDAFGDPGNVARLRRITFYSDNVMIEFFRSNPKLEKLRVLFCFAKDPSIFSHMAYFDFKLLHTLVVVMSQSFQAYVTIPSKFGNMTCLRYLRLEGNICGKLPNSIVKLTRLETIDIDRRSLIQPPSGVWESKHLRHLCYRDYGQACNSCFSISSFYPNIYSLHPNNLQTLMWIPDKFFEPRLLHRLINLRKLGILGVSNSTVKMLSIFSPVLKALEVLKLSFSSDPSEQIKLSSYPHIAKLHLNVNRTMALNSQSFPPNLIKLTLAYFSVDRYILAVLKTFPKLRKLKMFICKYNEEKMDLSGEANGYSFPQLEVLHIHSPNGLSEVTCTDDVSMPKLKKLLLTGFHRRISLSERLQKLSK | 3 |
| TM-2-2 variant pJL 480T (848 R, 857 T) (receptor) MAEILLTSVINKSVEIAGNLLIQEGKRLYWLKEDIDWLQREMRHIRSYVDNAKAKEAGGDSRVKNLLKDIQELAGDVEDLLDDFLPKIQQSNKFNYCLKRSSFADEFAMEIEKIKRRVVDIDRIRKTYNIIDTDNNNDDCVLLDRRRLFLHADETEIIGLDDDFNMLQAKLLNQDLHYGVVSIVGMPGLGKTTLAKKLYRLIRDQFECSGLVYVSQQPRASEILLDIAKQIGLTEQKMKENLEDNLRSLLKIKRYVILLDDIWDVEIWDDLKLVLPECDSKVGSRMIITSRNSNVGRYIGGESSLHALQPLESEKSFELFTKKIFNFDDNNSWANASPDLVNIGRNIVGRCGGIPLAIVVTAGMLRARERTEHAWNRVLESMGHKVQDGCAKVLALSYNDLPIASRPCFLYFGLYPEDHEIRAFDLINMWIAEKFIVVNSGNRREAEDLAEDVLNDLVSRNLIQLAKRTYNGRISSCRIHDLLHSLCVDLAKESNFFHTAHDAFGDPGNVARLRRITFYSDNVMIEFFRSNPKLEKLRVLFCFAKDPSIFSHMAYFDFKLLHTLVVVMSQSFQAYVTIPSKFGNMTCLRYLRLEGNICGKLPNSIVKLTRLETIDIDRRSLIQPPSGVWESKHLRHLCYRDYGQACNSCFSISSFYPNIYSLHPNNLQTLMWIPDKFFEPRLLHRLINLRKLGILGVSNSTVKMLSIFSPVLKALEVLKLSFSSDPSEQIKLSSYPHIAKLHLNVNRTMALNSQSFPPNLIKLTLAYFSVDRYILAVLKTFPKLRKLKMFICKYNEEKMDLSGEANGYSFPQLEVLHIHSPNGLSEVTCTDDVSMPKLKKLLLTGFHRRISLSERLTKLSK | < 1 |
| TM-2-2 variant pJL 480R (848 R, 857 R) (receptor) MAEILLTSVINKSVEIAGNLLIQEGKRLYWLKEDIDWLQREMRHIRSYVDNAKAKEAGGDSRVKNLLKDIQELAGDVEDLLDDFLPKIQQSNKFNYCLKRSSFADEFAMEIEKIKRRVVDIDRIRKTYNIIDTDNNNDDCVLLDRRRLFLHADETEIIGLDDDFNMLQAKLLNQDLHYGVVSIVGMPGLGKTTLAKKLYRLIRDQFECSGLVYVSQQPRASEILLDIAKQIGLTEQKMKENLEDNLRSLLKIKRYVILLDDIWDVEIWDDLKLVLPECDSKVGSRMIITSRNSNVGRYIGGESSLHALQPLESEKSFELFTKKIFNFDDNNSWANASPDLVNIGRNIVGRCGGIPLAIVVTAGMLRARERTEHAWNRVLESMGHKVQDGCAKVLALSYNDLPIASRPCFLYFGLYPEDHEIRAFDLINMWIAEKFIVVNSGNRREAEDLAEDVLNDLVSRNLIQLAKRTYNGRISSCRIHDLLHSLCVDLAKESNFFHTAHDAFGDPGNVARLRRITFYSDNVMIEFFRSNPKLEKLRVLFCFAKDPSIFSHMAYFDFKLLHTLVVVMSQSFQAYVTIPSKFGNMTCLRYLRLEGNICGKLPNSIVKLTRLETIDIDRRSLIQPPSGVWESKHLRHLCYRDYGQACNSCFSISSFYPNIYSLHPNNLQTLMWIPDKFFEPRLLHRLINLRKLGILGVSNSTVKMLSIFSPVLKALEVLKLSFSSDPSEQIKLSSYPHIAKLHLNVNRTMALNSQSFPPNLIKLTLAYFSVDRYILAVLKTFPKLRKLKMFICKYNEEKMDLSGEANGYSFPQLEVLHIHSPNGLSEVTCTDDVSMPKLKKLLLTGFHRRISLSERLRKLSK | < 1 |
| TM-2-2 variant pJL 480E (848 R, 857 E) (receptor) MAEILLTSVINKSVEIAGNLLIQEGKRLYWLKEDIDWLQREMRHIRSYVDNAKAKEAGGDSRVKNLLKDIQELAGDVEDLLDDFLPKIQQSNKFNYCLKRSSFADEFAMEIEKIKRRVVDIDRIRKTYNIIDTDNNNDDCVLLDRRRLFLHADETEIIGLDDDFNMLQAKLLNQDLHYGVVSIVGMPGLGKTTLAKKLYRLIRDQFECSGLVYVSQQPRASEILLDIAKQIGLTEQKMKENLEDNLRSLLKIKRYVILLDDIWDVEIWDDLKLVLPECDSKVGSRMIITSRNSNVGRYIGGESSLHALQPLESEKSFELFTKKIFNFDDNNSWANASPDLVNIGRNIVGRCGGIPLAIVVTAGMLRARERTEHAWNRVLESMGHKVQDGCAKVLALSYNDLPIASRPCFLYFGLYPEDHEIRAFDLINMWIAEKFIVVNSGNRREAEDLAEDVLNDLVSRNLIQLAKRTYNGRISSCRIHDLLHSLCVDLAKESNFFHTAHDAFGDPGNVARLRRITFYSDNVMIEFFRSNPKLEKLRVLFCFAKDPSIFSHMAYFDFKLLHTLVVVMSQSFQAYVTIPSKFGNMTCLRYLRLEGNICGKLPNSIVKLTRLETIDIDRRSLIQPPSGVWESKHLRHLCYRDYGQACNSCFSISSFYPNIYSLHPNNLQTLMWIPDKFFEPRLLHRLINLRKLGILGVSNSTVKMLSIFSPVLKALEVLKLSFSSDPSEQIKLSSYPHIAKLHLNVNRTMALNSQSFPPNLIKLTLAYFSVDRYILAVLKTFPKLRKLKMFICKYNEEKMDLSGEANGYSFPQLEVLHIHSPNGLSEVTCTDDVSMPKLKKLLLTGFHRRISLSERLEKLSK | < 1 |

Molecular target: T1, Movement Protein of ToBRFV
Test: cell-based or functional assay
Remark: another data set of the same source

| Binder | HR to MP Rugose [HR scale 0-4] |
| --- | --- |
| TM-2-2 variant L11_1 (767 R) (receptor) MAEILLTSVINKSVEIAGNLLIQEGKRLYWLKEDIDWLQREMRHIRSYVDNAKAKEAGGDSRVKNLLKDIQELAGDVEDLLDDFLPKIQQSNKFNYCLKRSSFADEFAMEIEKIKRRVVDIDRIRKTYNIIDTDNNNDDCVLLDRRRLFLHADETEIIGLDDDFNMLQAKLLNQDLHYGVVSIVGMPGLGKTTLAKKLYRLIRDQFECSGLVYVSQQPRASEILLDIAKQIGLTEQKMKENLEDNLRSLLKIKRYVILLDDIWDVEIWDDLKLVLPECDSKVGSRMIITSRNSNVGRYIGGESSLHALQPLESEKSFELFTKKIFNFDDNNSWANASPDLVNIGRNIVGRCGGIPLAIVVTAGMLRARERTEHAWNRVLESMGHKVQDGCAKVLALSYNDLPIASRPCFLYFGLYPEDHEIRAFDLINMWIAEKFIVVNSGNRREAEDLAEDVLNDLVSRNLIQLAKRTYNGRISSCRIHDLLHSLCVDLAKESNFFHTAHDAFGDPGNVARLRRITFYSDNVMIEFFRSNPKLEKLRVLFCFAKDPSIFSHMAYFDFKLLHTLVVVMSQSFQAYVTIPSKFGNMTCLRYLRLEGNICGKLPNSIVKLTRLETIDIDRRSLIQPPSGVWESKHLRHLCYRDYGQACNSCFSISSFYPNIYSLHPNNLQTLMWIPDKFFEPRLLHRLINLRKLGILGVSNSTVKMLSIFSPVLKALEVLKLSFSSDPSEQIKLSSYPHIAKLHLNVNRTMALNSQSFPPNLIKLTLARFSVDRYILAVLKTFPKLRKLKMFICKYNEEKMDLSGEANGYSFPQLEVLHIHSPNGLSEVTCTDDVSMPKLKKLLLTGFHCRISLSERLKKLSK | < 1 |
| TM-2-2 variant L11_20 (767 V) (receptor) MAEILLTSVINKSVEIAGNLLIQEGKRLYWLKEDIDWLQREMRHIRSYVDNAKAKEAGGDSRVKNLLKDIQELAGDVEDLLDDFLPKIQQSNKFNYCLKRSSFADEFAMEIEKIKRRVVDIDRIRKTYNIIDTDNNNDDCVLLDRRRLFLHADETEIIGLDDDFNMLQAKLLNQDLHYGVVSIVGMPGLGKTTLAKKLYRLIRDQFECSGLVYVSQQPRASEILLDIAKQIGLTEQKMKENLEDNLRSLLKIKRYVILLDDIWDVEIWDDLKLVLPECDSKVGSRMIITSRNSNVGRYIGGESSLHALQPLESEKSFELFTKKIFNFDDNNSWANASPDLVNIGRNIVGRCGGIPLAIVVTAGMLRARERTEHAWNRVLESMGHKVQDGCAKVLALSYNDLPIASRPCFLYFGLYPEDHEIRAFDLINMWIAEKFIVVNSGNRREAEDLAEDVLNDLVSRNLIQLAKRTYNGRISSCRIHDLLHSLCVDLAKESNFFHTAHDAFGDPGNVARLRRITFYSDNVMIEFFRSNPKLEKLRVLFCFAKDPSIFSHMAYFDFKLLHTLVVVMSQSFQAYVTIPSKFGNMTCLRYLRLEGNICGKLPNSIVKLTRLETIDIDRRSLIQPPSGVWESKHLRHLCYRDYGQACNSCFSISSFYPNIYSLHPNNLQTLMWIPDKFFEPRLLHRLINLRKLGILGVSNSTVKMLSIFSPVLKALEVLKLSFSSDPSEQIKLSSYPHIAKLHLNVNRTMALNSQSFPPNLIKLTLAVFSVDRYILAVLKTFPKLRKLKMFICKYNEEKMDLSGEANGYSFPQLEVLHIHSPNGLSEVTCTDDVSMPKLKKLLLTGFHCRISLSERLKKLSK | 0 |

Source: patent US20240049668A1 (VILMORIN AND CIE, published 2024)
